Patent publication US20180155451A1 (published 2018)

T1: FcγRIIb extracellular domain with C-terminal His tag (human, UniProt P31994 43-217)
T1 construct: extracellular domain; also called 2b; FcgRIIb
T1 sequence (looked up): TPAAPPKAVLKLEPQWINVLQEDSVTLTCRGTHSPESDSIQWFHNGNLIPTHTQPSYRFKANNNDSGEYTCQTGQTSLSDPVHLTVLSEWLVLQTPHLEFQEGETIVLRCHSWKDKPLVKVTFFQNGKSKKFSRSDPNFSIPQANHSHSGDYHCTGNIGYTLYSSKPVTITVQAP


Assays:
[1] = target: T1, FcγRIIb extracellular domain with …; assay: SPR, relative to GpH7-A5/GpH7-B3/GpL16-k0
Procedure: (§1) The heterodimerized antibodies He Abs in which one of the H chains was introduced with an alteration were assayed for their binding activities to each activating FcγR and inhibitory FcγR according to the method described in Example 4. […] The activating FcγRs in FIGS. 26, 27, 28, and 29 are FcγRIa, FcγRIIa (R), FcγRIIa (H), and FcγRIIIa, respectively.
(§2) Analysis of interaction between objective antibody and the FcγR was carried out using Biacore T100 (GE Healthcare). HBS-EP+ (GE Healthcare) was used as the running buffer, and the measurement temperature was set to 25° C. Chips produced by immobilizing the antigen peptide by the amine coupling method to a Series S Sencor Chip CM5 (GE Healthcare), or alternatively, chips produced by allowing preliminarily biotinylated antigen peptides to interact with and immobilize onto a Series S Sensor Chip SA (certified) (GE Healthcare) were used. Antibodies of interest were captured onto an antigen peptide-immobilized chip, and allowed to interact to each FcγR diluted with running buffer. To regenerate and repeatedly use the chip, the antibodies captured on the chip were washed off by reacting 10 mM glycine-HCl, pH 1.5.

[2] = target: T2, FcγRIIIa extracellular domain with C-terminal His tag (human, UniProt P08637 17-208); assay: SPR, relative to GpH7-A5/GpH7-B3/GpL16-k0
T2 construct: extracellular domain; also called 3a; FcgRIIIa
Procedure: as §1, §2

T2 sequence (P08637 17-208): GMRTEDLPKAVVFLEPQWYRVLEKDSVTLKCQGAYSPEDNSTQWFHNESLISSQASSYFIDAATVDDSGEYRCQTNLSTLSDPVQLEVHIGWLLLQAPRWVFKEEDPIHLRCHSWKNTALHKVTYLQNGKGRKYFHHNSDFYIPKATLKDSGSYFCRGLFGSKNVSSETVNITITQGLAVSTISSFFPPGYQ

| He/Con_2b [1] | He/Con_3a [2] | Binder |
| --- | --- | --- |
| 52.4 control=100 | 101 control=100 | GpH7-A5/GpH7-B3 variant A330_03V/GpL16-k0 (antibody, human IgG1, kappa, He Ab: alteration in one H chain only; also called He Ab) heavy 1: not shown heavy 2: not shown light: DIVMTQSPLSLPVTPGEPASISCQASESLVHSNRNTYLHWYLQKPGQSPQLLIYKVSNRFSGVPDRFSGSGSGTDFTLKISRVEAEDVGVYYCSQNTHVPPTFGQGTKVEIERTVAAPSVFIFPPSDEQLKSGTASVVCLLNNFYPREAKVQWKVDNALQSGNSQESVTEQDSKDSTYSLSSTLTLSKADYEKHKVYACEVTHQGLSSPVTKSFNRGEC |
| 76.1 control=100 | 104 control=100 | GpH7-A5/GpH7-B3 variant A330_20W/GpL16-k0 (antibody, human IgG1, kappa, He Ab: alteration in one H chain only; also called He Ab) heavy 1: not shown heavy 2: not shown light: DIVMTQSPLSLPVTPGEPASISCQASESLVHSNRNTYLHWYLQKPGQSPQLLIYKVSNRFSGVPDRFSGSGSGTDFTLKISRVEAEDVGVYYCSQNTHVPPTFGQGTKVEIERTVAAPSVFIFPPSDEQLKSGTASVVCLLNNFYPREAKVQWKVDNALQSGNSQESVTEQDSKDSTYSLSSTLTLSKADYEKHKVYACEVTHQGLSSPVTKSFNRGEC |
| 70.5 control=100 | 124 control=100 | GpH7-A5/GpH7-B3 variant A330_08L/GpL16-k0 (antibody, human IgG1, kappa, He Ab: alteration in one H chain only; also called He Ab) heavy 1: not shown heavy 2: not shown light: DIVMTQSPLSLPVTPGEPASISCQASESLVHSNRNTYLHWYLQKPGQSPQLLIYKVSNRFSGVPDRFSGSGSGTDFTLKISRVEAEDVGVYYCSQNTHVPPTFGQGTKVEIERTVAAPSVFIFPPSDEQLKSGTASVVCLLNNFYPREAKVQWKVDNALQSGNSQESVTEQDSKDSTYSLSSTLTLSKADYEKHKVYACEVTHQGLSSPVTKSFNRGEC |
| 80.5 control=100 | 142 control=100 | GpH7-A5/GpH7-B3 variant A330_06M/GpL16-k0 (antibody, human IgG1, kappa, He Ab: alteration in one H chain only; also called He Ab) heavy 1: not shown heavy 2: not shown light: DIVMTQSPLSLPVTPGEPASISCQASESLVHSNRNTYLHWYLQKPGQSPQLLIYKVSNRFSGVPDRFSGSGSGTDFTLKISRVEAEDVGVYYCSQNTHVPPTFGQGTKVEIERTVAAPSVFIFPPSDEQLKSGTASVVCLLNNFYPREAKVQWKVDNALQSGNSQESVTEQDSKDSTYSLSSTLTLSKADYEKHKVYACEVTHQGLSSPVTKSFNRGEC |
| 87.6 control=100 | 104 control=100 | GpH7-A5/GpH7-B3 variant A330_16H/GpL16-k0 (antibody, human IgG1, kappa, He Ab: alteration in one H chain only; also called He Ab) heavy 1: not shown heavy 2: not shown light: DIVMTQSPLSLPVTPGEPASISCQASESLVHSNRNTYLHWYLQKPGQSPQLLIYKVSNRFSGVPDRFSGSGSGTDFTLKISRVEAEDVGVYYCSQNTHVPPTFGQGTKVEIERTVAAPSVFIFPPSDEQLKSGTASVVCLLNNFYPREAKVQWKVDNALQSGNSQESVTEQDSKDSTYSLSSTLTLSKADYEKHKVYACEVTHQGLSSPVTKSFNRGEC |
| 94.6 control=100 | 101 control=100 | GpH7-A5/GpH7-B3 variant E333_04F/GpL16-k0 (antibody, human IgG1, kappa, He Ab: alteration in one H chain only; also called He Ab) heavy 1: not shown heavy 2: not shown light: DIVMTQSPLSLPVTPGEPASISCQASESLVHSNRNTYLHWYLQKPGQSPQLLIYKVSNRFSGVPDRFSGSGSGTDFTLKISRVEAEDVGVYYCSQNTHVPPTFGQGTKVEIERTVAAPSVFIFPPSDEQLKSGTASVVCLLNNFYPREAKVQWKVDNALQSGNSQESVTEQDSKDSTYSLSSTLTLSKADYEKHKVYACEVTHQGLSSPVTKSFNRGEC |
| 93.2 control=100 | 103 control=100 | GpH7-A5/GpH7-B3 variant E333_03V/GpL16-k0 (antibody, human IgG1, kappa, He Ab: alteration in one H chain only; also called He Ab) heavy 1: not shown heavy 2: not shown light: DIVMTQSPLSLPVTPGEPASISCQASESLVHSNRNTYLHWYLQKPGQSPQLLIYKVSNRFSGVPDRFSGSGSGTDFTLKISRVEAEDVGVYYCSQNTHVPPTFGQGTKVEIERTVAAPSVFIFPPSDEQLKSGTASVVCLLNNFYPREAKVQWKVDNALQSGNSQESVTEQDSKDSTYSLSSTLTLSKADYEKHKVYACEVTHQGLSSPVTKSFNRGEC |
| 95 control=100 | 125 control=100 | GpH7-A5/GpH7-B3 variant A330_15Y/GpL16-k0 (antibody, human IgG1, kappa, He Ab: alteration in one H chain only; also called He Ab) heavy 1: not shown heavy 2: not shown light: DIVMTQSPLSLPVTPGEPASISCQASESLVHSNRNTYLHWYLQKPGQSPQLLIYKVSNRFSGVPDRFSGSGSGTDFTLKISRVEAEDVGVYYCSQNTHVPPTFGQGTKVEIERTVAAPSVFIFPPSDEQLKSGTASVVCLLNNFYPREAKVQWKVDNALQSGNSQESVTEQDSKDSTYSLSSTLTLSKADYEKHKVYACEVTHQGLSSPVTKSFNRGEC |
| 67.1 control=100 | 103 control=100 | GpH7-A5/GpH7-B3 variant A330_07I/GpL16-k0 (antibody, human IgG1, kappa, He Ab: alteration in one H chain only; also called He Ab) heavy 1: not shown heavy 2: not shown light: DIVMTQSPLSLPVTPGEPASISCQASESLVHSNRNTYLHWYLQKPGQSPQLLIYKVSNRFSGVPDRFSGSGSGTDFTLKISRVEAEDVGVYYCSQNTHVPPTFGQGTKVEIERTVAAPSVFIFPPSDEQLKSGTASVVCLLNNFYPREAKVQWKVDNALQSGNSQESVTEQDSKDSTYSLSSTLTLSKADYEKHKVYACEVTHQGLSSPVTKSFNRGEC |
| 92.8 control=100 | 147 control=100 | GpH7-A5/GpH7-B3 variant A330_04F/GpL16-k0 (antibody, human IgG1, kappa, He Ab: alteration in one H chain only; also called He Ab) heavy 1: not shown heavy 2: not shown light: DIVMTQSPLSLPVTPGEPASISCQASESLVHSNRNTYLHWYLQKPGQSPQLLIYKVSNRFSGVPDRFSGSGSGTDFTLKISRVEAEDVGVYYCSQNTHVPPTFGQGTKVEIERTVAAPSVFIFPPSDEQLKSGTASVVCLLNNFYPREAKVQWKVDNALQSGNSQESVTEQDSKDSTYSLSSTLTLSKADYEKHKVYACEVTHQGLSSPVTKSFNRGEC |
| 94.3 control=100 | 112 control=100 | GpH7-A5/GpH7-B3 variant E333_09D/GpL16-k0 (antibody, human IgG1, kappa, He Ab: alteration in one H chain only; also called He Ab) heavy 1: not shown heavy 2: not shown light: DIVMTQSPLSLPVTPGEPASISCQASESLVHSNRNTYLHWYLQKPGQSPQLLIYKVSNRFSGVPDRFSGSGSGTDFTLKISRVEAEDVGVYYCSQNTHVPPTFGQGTKVEIERTVAAPSVFIFPPSDEQLKSGTASVVCLLNNFYPREAKVQWKVDNALQSGNSQESVTEQDSKDSTYSLSSTLTLSKADYEKHKVYACEVTHQGLSSPVTKSFNRGEC |
| 76.5 control=100 | 123 control=100 | GpH7-A5/GpH7-B3 variant D270_10E/GpL16-k0 (antibody, human IgG1, kappa, He Ab: alteration in one H chain only; also called He Ab) heavy 1: not shown heavy 2: not shown light: DIVMTQSPLSLPVTPGEPASISCQASESLVHSNRNTYLHWYLQKPGQSPQLLIYKVSNRFSGVPDRFSGSGSGTDFTLKISRVEAEDVGVYYCSQNTHVPPTFGQGTKVEIERTVAAPSVFIFPPSDEQLKSGTASVVCLLNNFYPREAKVQWKVDNALQSGNSQESVTEQDSKDSTYSLSSTLTLSKADYEKHKVYACEVTHQGLSSPVTKSFNRGEC |
| 83.8 control=100 | 105 control=100 | GpH7-A5/GpH7-B3 variant E333_02A/GpL16-k0 (antibody, human IgG1, kappa, He Ab: alteration in one H chain only; also called He Ab) heavy 1: not shown heavy 2: not shown light: DIVMTQSPLSLPVTPGEPASISCQASESLVHSNRNTYLHWYLQKPGQSPQLLIYKVSNRFSGVPDRFSGSGSGTDFTLKISRVEAEDVGVYYCSQNTHVPPTFGQGTKVEIERTVAAPSVFIFPPSDEQLKSGTASVVCLLNNFYPREAKVQWKVDNALQSGNSQESVTEQDSKDSTYSLSSTLTLSKADYEKHKVYACEVTHQGLSSPVTKSFNRGEC |
| 81.8 control=100 | 103 control=100 | GpH7-A5/GpH7-B3 variant E333_13S/GpL16-k0 (antibody, human IgG1, kappa, He Ab: alteration in one H chain only; also called He Ab) heavy 1: not shown heavy 2: not shown light: DIVMTQSPLSLPVTPGEPASISCQASESLVHSNRNTYLHWYLQKPGQSPQLLIYKVSNRFSGVPDRFSGSGSGTDFTLKISRVEAEDVGVYYCSQNTHVPPTFGQGTKVEIERTVAAPSVFIFPPSDEQLKSGTASVVCLLNNFYPREAKVQWKVDNALQSGNSQESVTEQDSKDSTYSLSSTLTLSKADYEKHKVYACEVTHQGLSSPVTKSFNRGEC |
| 83.3 control=100 | 103 control=100 | GpH7-A5/GpH7-B3 variant E333_16H/GpL16-k0 (antibody, human IgG1, kappa, He Ab: alteration in one H chain only; also called He Ab) heavy 1: not shown heavy 2: not shown light: DIVMTQSPLSLPVTPGEPASISCQASESLVHSNRNTYLHWYLQKPGQSPQLLIYKVSNRFSGVPDRFSGSGSGTDFTLKISRVEAEDVGVYYCSQNTHVPPTFGQGTKVEIERTVAAPSVFIFPPSDEQLKSGTASVVCLLNNFYPREAKVQWKVDNALQSGNSQESVTEQDSKDSTYSLSSTLTLSKADYEKHKVYACEVTHQGLSSPVTKSFNRGEC |
